Experimental data from patent US20200399344A1.

What was measured:
[1] = target: mCD28 expressed on CHO-K1/mCD28 cells (mouse) (UniProt P31041); assay: flow cytometry, isotype control stain (sample Chok1-IsotypeCD28); unstained cells 286
[2] = target: m2B4 expressed on CHO-K1/m2B4 cells (mouse) (UniProt Q07763); assay: flow cytometry, isotype control stain of Cho-K1-NFkB-Luc-m2B4 clone C2; unstained cells 2.00
[3] = target: hCD2 expressed on CHO-K1/hCD2 cells (human) (UniProt P06729); assay: flow cytometry, isotype control stain of Cho-K1-Luc hCD2 clone 4; unstained cells 362
Chain of hCD2 expressed on CHO-K1/hCD2 cells (human) (P06729 25-351): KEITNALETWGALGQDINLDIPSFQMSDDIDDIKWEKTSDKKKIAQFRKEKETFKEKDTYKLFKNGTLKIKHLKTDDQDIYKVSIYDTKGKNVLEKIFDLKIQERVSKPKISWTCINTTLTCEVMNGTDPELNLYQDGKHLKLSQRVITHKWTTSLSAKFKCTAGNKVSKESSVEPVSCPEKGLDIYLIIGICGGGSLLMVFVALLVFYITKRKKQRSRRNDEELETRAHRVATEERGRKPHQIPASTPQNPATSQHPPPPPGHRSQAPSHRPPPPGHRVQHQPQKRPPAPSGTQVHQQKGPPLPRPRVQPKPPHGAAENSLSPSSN

[4] = target: hCD28 expressed on CHO-K1/hCD28 cells (human) (UniProt P10747); assay: flow cytometry, isotype control stain of CHO-K1/hCD28 cells (table row 1); unstained cells 130
Chain of hCD28 expressed on CHO-K1/hCD28 cells (human) (P10747 19-220): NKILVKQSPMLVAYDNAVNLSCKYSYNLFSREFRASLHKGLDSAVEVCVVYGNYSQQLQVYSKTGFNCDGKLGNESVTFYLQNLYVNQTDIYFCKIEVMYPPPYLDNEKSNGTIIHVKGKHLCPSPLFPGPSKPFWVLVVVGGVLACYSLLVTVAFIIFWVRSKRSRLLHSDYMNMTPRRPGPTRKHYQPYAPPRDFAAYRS

Chain of mCD28 expressed on CHO-K1/mCD28 cells (mouse) (P31041 20-218): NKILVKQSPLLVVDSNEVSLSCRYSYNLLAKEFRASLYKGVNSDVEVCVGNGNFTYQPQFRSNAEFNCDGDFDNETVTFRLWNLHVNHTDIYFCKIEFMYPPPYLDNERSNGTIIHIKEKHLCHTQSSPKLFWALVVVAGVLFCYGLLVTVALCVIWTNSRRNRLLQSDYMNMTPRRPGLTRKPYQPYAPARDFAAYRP
Chain of m2B4 expressed on CHO-K1/m2B4 cells (mouse) (Q07763 20-397): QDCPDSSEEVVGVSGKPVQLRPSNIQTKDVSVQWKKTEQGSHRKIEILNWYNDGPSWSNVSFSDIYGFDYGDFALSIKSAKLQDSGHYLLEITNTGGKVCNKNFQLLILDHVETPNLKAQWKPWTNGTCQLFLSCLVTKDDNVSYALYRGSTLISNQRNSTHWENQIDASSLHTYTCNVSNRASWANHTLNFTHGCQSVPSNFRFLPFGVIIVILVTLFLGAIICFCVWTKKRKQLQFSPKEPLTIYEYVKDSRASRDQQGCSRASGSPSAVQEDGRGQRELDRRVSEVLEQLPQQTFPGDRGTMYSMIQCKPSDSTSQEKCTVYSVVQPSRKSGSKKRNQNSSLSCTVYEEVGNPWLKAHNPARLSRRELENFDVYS

isotype control antibody
Geometric Mean : PE-A [1]: 678 | Geometric Mean : PE-A [2]: 178 | Geometric Mean : PE-A [3]: 1760 | Geometric Mean : PE-A [4]: 589
